Results published in US20220233607A1 (UNIVERSIT DE TOURS, published 2022).

B1: scFv anti-DEC205 (DC2) protein, membrane anchored ScFv DEC 205 including a HA tag, on the surface of T. gondii RH-DC2 tachyzoites (scFv)
scFv: YPYDVPDYAQVQLQESGGGLVQPGGSLRLSCAASGFTFNDFYMNWIRQPPGQAPEWLGVIRNKGNGYTTEVNTSVKGRFTISRDNTQNILYLQMNSLRAEDTAIYYCARGGPYYYSGDDAPYWGQGVMVTVSSGGGGSGGGGSGGGGSDIQMTQSPSSLSASVGDRVTITCRASQNIKGWLAWYQQKSGNAPQLLIYKASSLQSGVPSRFSGSGSGTDYIFTISNLQPEDIATYYCQHYQSFPWTFGGGTKLELKGGGAS
notes: also called SS SAG1-HA-ScFv-linker-GPI; RH-DEC205
B2: scFv anti-DEC205 fused to SAG1 (DC2 SAG1) protein, membrane anchored SAG1 ScFv DEC 205 including a HA tag, on the surface of T. gondii RH-DC2-SAG1 tachyzoites (scFv)
scFv: YPYDVPDYAQVQLQESGGGLVQPGGSLRLSCAASGFTFNDFYMNWIRQPPGQAPEWLGVIRNKGNGYTTEVNTSVKGRFTISRDNTQNILYLQMNSLRAEDTAIYYCARGGPYYYSGDDAPYWGQGVMVTVSSGGGGSGGGGSGGGGSDIQMTQSPSSLSASVGDRVTITCRASQNIKGWLAWYQQKSGNAPQLLIYKASSLQSGVPSRFSGSGSGTDYIFTISNLQPEDIATYYCQHYQSFPWTFGGGTKLELKGGGASPLVANQVVTCPDKKSTAAVILTPTENHFTLKCPKTALTEPPTLAYSPNRQICPAGTTSSCTSKAVTLSSLIPEAEDSWWTGDSASLDTAGIKLTVPIEKFPVTTQTFVVGCIKGDDAQSCMVTVTVQARASSVVNNVARCSYGADSTLGPVKLSAEGPTTMTLVCGKDGVKVPQDNNQYCSGTTLTGCNEKSFKDILPKLTENPWQGNASSDKGATLTIKKEAFPAESKSVIIGCTGGSPEKHHCTVKLEFA
notes: also called RH-DEC205

Target: T1, DEC205 on MutuDC 1950 cells (murine dendritic cell line, DEC205+) (murine, UniProt Q60767 28-1723)
T1 construct: whole, on cells; also called CD205; dendritic cells
Assay: flow cytometry, MutuDC 1950 cells with parasites at MOI 2 on ice, anti-gp23 mAb

Binder	multiplication factor of the percentage of T. gondii binding to mutuDC cells (against RH strain)
B1	≥ 2.5 fold
B2	≥ 2.5 fold
